{
  "source": "patent US20130295106A1",
  "about": "(ONCOMED PHARMACEUTICALS, published 2013)",
  "binders": {"B1": {"name": "clone 28 (peptide)", "peptide": "DVWWLGSTWLKR", "notes": "marked with an arrow"}, "B2": {"name": "18R5 IgG antibody (human IgG2, lambda) (antibody, V domains shown)", "VH": "EVQLVESGGGLVQPGGSLRLSCAASGFTFSHYTLSWVRQAPGKGLEWVSVISGDGSYTYYADSVKGRFTISSDNSKNTLYLQMNSLRAEDTAVYYCARNFIKYVFANWGQGTLVTVSS", "VL": "DIELTQPPSVSVAPGQTARISCSGDNIGSFYVHWYQQKPGQAPVLVIYDKSNRPSGIPERFSGSNSGNTATLTISGTQAEDEADYYCQSYANTLSLVFGGGTKLTVLG", "notes": "also called OMP-18R5; 18R5 IgG2 antibody"}, "B3": {"name": "FZD binding peptide clone #2 (DTLSALIERGLM) (peptide)", "peptide": "DTLSALIERGLM", "notes": "Linear 12-mer from the Ph.D. phage display peptide library"}, "B4": {"name": "44R24 anti-FZD IgG antibody (antibody, V domains shown)", "VH": "EVQLVESGGGLVQPGGSLRLSCAASGFTFSSYYITWVRQAPGKGLEWVSTISYSSSNTYYADSVKGRFTISRDNSKNTLYLQMNSLRAEDTAVYYCARSIVFDYWGQGTLVTVSS", "VL": "DIELTQPPSVSVAPGQTARISCSGDALGNRYVYWYQQKPGQAPVLVIPSGIPERFSGSNSGNTATLTISGTQAEDEADYYCGSWDTRPYPKYVFGGGTKLTVLG", "notes": "also called anti-FZD5/8 44R24"}},
  "key": {"[1]": {"biological_target": "T1, FZD8-Fc variant Mut2 (substitution at position 75 in the cleft) (human, UniProt Q9H461 28-157)", "T1 construct": "also called FZD8-Mut2; not shown: human IgG1 Fc", "T1 chain": "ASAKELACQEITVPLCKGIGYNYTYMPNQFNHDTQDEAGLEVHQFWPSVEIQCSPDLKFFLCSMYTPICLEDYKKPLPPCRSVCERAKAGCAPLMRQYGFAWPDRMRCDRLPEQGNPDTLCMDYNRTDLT", "test": "phage ELISA on FZD8-Fc Mut2"}, "[2]": {"biological_target": "T2, human FZD1 expressed on transfected HEK293 cells (human, UniProt Q9UP38 70-647)", "T2 sequence (Q9UP38 70-647 limits assumed)": "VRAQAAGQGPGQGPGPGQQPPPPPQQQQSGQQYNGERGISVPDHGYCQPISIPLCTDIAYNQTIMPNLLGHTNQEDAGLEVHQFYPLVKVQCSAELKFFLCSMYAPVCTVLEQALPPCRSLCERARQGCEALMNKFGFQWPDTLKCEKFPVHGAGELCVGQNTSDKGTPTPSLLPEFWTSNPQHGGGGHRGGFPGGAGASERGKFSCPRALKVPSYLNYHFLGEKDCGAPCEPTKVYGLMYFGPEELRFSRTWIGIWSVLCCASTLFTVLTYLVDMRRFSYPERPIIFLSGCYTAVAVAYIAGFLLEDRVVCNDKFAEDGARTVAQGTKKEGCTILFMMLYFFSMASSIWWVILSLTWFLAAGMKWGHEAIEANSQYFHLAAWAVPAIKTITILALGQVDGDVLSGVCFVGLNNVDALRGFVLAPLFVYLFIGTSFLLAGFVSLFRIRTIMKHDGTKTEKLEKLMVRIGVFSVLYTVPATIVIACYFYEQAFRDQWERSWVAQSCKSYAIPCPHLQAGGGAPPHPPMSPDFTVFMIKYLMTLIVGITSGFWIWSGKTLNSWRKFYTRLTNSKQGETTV", "test": "FACS titration (MFI) on HEK293 cells transfected with full-length FZD and GFP", "method": "(§1) HEK293 cells were co-transfected with a plasmid DNA expressing full-length FZD1, 2, 5, 7 or 8 along with another plasmid expressing the reporter gene GFP used as a transfection marker. Fugene 6 (Roche) was used as transfection reagent according to the manufacturer directions. Transfected cells were incubated twenty-four to forty-eight hours at 37° C. and 5% CO₂. The anti-FZD mAbs were then diluted in a final volume of 50 μl starting with a concentration of 20 μg/ml and serially diluted 4-fold for a total of 8 dilutions. […] The cells were washed and bound anti-Fzd antibodies were detected with a secondary anti-human antibody conjugated to a fluorescent chromophore. Labeled cells were then detected and counted by FACS. The FACS data generated were expressed in Mean Fluorescence Intensity (MFI) units. GraphPad Prism software was used to graph and analyze the data. MFIs were plotted as a function of Ab concentration to establish dose-response curves. A non-linear regression was applied to the numbers to fit the curve and calculate EC50s.\n(§2) The binding profiles for the mAbs 18R5 and 44R24 were determined and compared. 44R24 bound Fzd5 and Fzd8 with good affinity."}, "[3]": {"biological_target": "T3, human FZD2 expressed on transfected HEK293 cells (human, UniProt Q14332 24-565)", "T3 construct": "See note of m11", "T3 sequence (Q14332 24-565 limits assumed)": "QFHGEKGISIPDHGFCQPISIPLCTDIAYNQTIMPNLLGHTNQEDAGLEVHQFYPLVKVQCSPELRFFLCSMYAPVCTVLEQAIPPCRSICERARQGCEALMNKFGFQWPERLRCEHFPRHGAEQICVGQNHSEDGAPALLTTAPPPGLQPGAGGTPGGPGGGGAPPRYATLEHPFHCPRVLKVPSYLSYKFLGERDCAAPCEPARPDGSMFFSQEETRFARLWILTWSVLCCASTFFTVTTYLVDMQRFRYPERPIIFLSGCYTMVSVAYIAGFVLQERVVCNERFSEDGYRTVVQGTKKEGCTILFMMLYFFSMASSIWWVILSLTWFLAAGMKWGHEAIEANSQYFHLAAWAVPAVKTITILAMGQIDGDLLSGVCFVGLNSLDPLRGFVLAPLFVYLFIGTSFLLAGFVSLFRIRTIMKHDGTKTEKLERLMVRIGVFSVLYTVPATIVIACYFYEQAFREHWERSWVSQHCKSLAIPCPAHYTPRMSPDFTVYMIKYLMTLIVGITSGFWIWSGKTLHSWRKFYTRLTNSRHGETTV", "test": "FACS titration (MFI) on HEK293 cells transfected with full-length FZD and GFP", "method": "as §1, §2"}, "[4]": {"biological_target": "T4, human FZD5 expressed on transfected HEK293 cells (human, UniProt Q13467 27-585)", "T4 construct": "See note of m11", "test": "FACS titration (MFI) on HEK293 cells transfected with full-length FZD and GFP", "method": "as §1, §2"}, "[5]": {"biological_target": "T5, human FZD7 expressed on transfected HEK293 cells (human, UniProt O75084 33-574)", "T5 construct": "See note of m11", "test": "FACS titration (MFI) on HEK293 cells transfected with full-length FZD and GFP", "method": "as §1, §2"}, "[6]": {"biological_target": "T6, recombinant FZD1 Fc protein (Biacore) (Homo sapiens (Human), UniProt Q9UP38 70-321, limits assumed)", "T6 construct": "also called Fzd Fc; not shown: Fc part, not described", "T6 sequence (Q9UP38 70-321 limits assumed)": "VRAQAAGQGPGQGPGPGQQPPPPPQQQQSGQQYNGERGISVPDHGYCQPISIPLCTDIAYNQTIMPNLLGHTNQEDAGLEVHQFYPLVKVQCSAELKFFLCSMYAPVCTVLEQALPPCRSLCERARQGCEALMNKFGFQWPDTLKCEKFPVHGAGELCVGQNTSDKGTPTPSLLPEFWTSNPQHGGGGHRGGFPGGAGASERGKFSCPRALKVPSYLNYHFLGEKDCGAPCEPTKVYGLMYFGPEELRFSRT", "test": "SPR, Biacore 2000; Fzd Fc immobilized on CM5 chip, IgG 100 to 0.78 nM in solution", "method": "(§3) The KDs of 18R8 and 18R5 antibodies were determined using the Biacore 2000 system from Biacore Lifescience (GE Healthcare). Specifically, purified anti-Fzd7 antibodies were serially diluted in 2-fold increments from 100 to 0.78 nM in HBS-P (0.01 M HEPES pH 7.4, 0.15 M NaCl, 0.005% v/v Surfactant P20). Each dilution was tested against recombinant Fzd Fc proteins immobilized onto a CM5 Biacore chip. The association and dissociation rates were measured and KD values determined using the Biaevaluation software program (Table 5, below)."}, "[7]": {"biological_target": "T7, recombinant FZD2 Fc protein (Biacore) (Homo sapiens (Human), UniProt Q14332 24-250, limits assumed)", "T7 construct": "also called Fzd Fc; not shown: Fc part, not described", "T7 sequence (Q14332 24-250 limits assumed)": "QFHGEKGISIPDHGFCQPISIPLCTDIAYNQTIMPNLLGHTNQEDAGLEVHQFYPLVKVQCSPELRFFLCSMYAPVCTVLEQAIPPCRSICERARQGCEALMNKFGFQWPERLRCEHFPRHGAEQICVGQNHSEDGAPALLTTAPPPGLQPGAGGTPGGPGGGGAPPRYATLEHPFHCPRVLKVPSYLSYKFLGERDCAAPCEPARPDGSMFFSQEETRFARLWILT", "test": "SPR, Biacore 2000; Fzd Fc immobilized on CM5 chip, IgG 100 to 0.78 nM in solution", "method": "as §3"}, "FZD5-Fc": {"biological_target": "T8, FZD5-Fc (Homo sapiens (Human), UniProt Q13467 27-233, limits assumed)", "T8 construct": "also called recombinant FZD5 Fc protein; not shown: Fc part, not described", "T8 sequence": "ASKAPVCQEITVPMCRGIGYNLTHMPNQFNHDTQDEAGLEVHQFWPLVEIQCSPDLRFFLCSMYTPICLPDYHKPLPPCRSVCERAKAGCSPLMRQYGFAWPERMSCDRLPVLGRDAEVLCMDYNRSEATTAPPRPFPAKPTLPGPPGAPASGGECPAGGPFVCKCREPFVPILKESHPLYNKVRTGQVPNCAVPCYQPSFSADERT", "test": "SPR, Biacore 2000; Fzd Fc immobilized on CM5 chip, IgG 100 to 0.78 nM in solution", "method": "as §3"}, "[8]": {"biological_target": "T9, recombinant FZD7 Fc protein (Biacore) (Homo sapiens (Human), UniProt O75084 33-255, limits assumed)", "T9 construct": "also called Fzd Fc; not shown: Fc part, not described", "test": "SPR, Biacore 2000; Fzd Fc immobilized on CM5 chip, IgG 100 to 0.78 nM in solution", "method": "as §3"}, "[9]": {"biological_target": "T2, human FZD1 expressed on transfected …", "test": "flow cytometry (MFI), antibody titration on HEK293 cells overexpressing the FZD", "method": "(§4) To measure antibody binding to FZD by flow cytometry HEK293 cells were co-transfected with FZD expression vectors and the transfection marker GFP. Twenty-four to forty-eight hours post-transfection, cells were collected in suspension and incubated on ice with anti-FZD antibodies (10 μg/ml unless otherwise indicated) or control IgG to detect background antibody binding. The cells were washed and primary antibodies detected with Fc domain-specific secondary antibodies conjugated to a fluorescent chromophore (e.g. phycoerythrin conjugated anti-human IgG). Labeled cells were then analyzed by flow cytometry to identify anti-FZD antibodies that specifically recognize cell surface expression of FZD protein. Monoclonal antibodies 18R5 and 18R8 recognized FZD on transfected cells. As shown in FIG. 1 and FIG. 2, both 18R8 and 18R5 bind to multiple FZD including FZD1, FZD2, FZD5, FZD7, and FZD8. To examine the relative ability of 18R8 and 18R5 to bind to each FZD protein, titration analysis was conducted wherein the amount of antibody in the binding reaction was varied (FIG. 2)."}, "[10]": {"biological_target": "T3, human FZD2 expressed on transfected …", "test": "flow cytometry (MFI), antibody titration on HEK293 cells overexpressing the FZD", "method": "as §4"}, "[11]": {"biological_target": "T10, soluble FZD8-Fc containing the Fri domain (amino acids 1-157 of FZD8 linked in-frame to human IgG1 Fc) (human, UniProt Q9H461 28-157)", "T10 construct": "also called wild-type FZD8; not shown: human IgG1 Fc", "T10 sequence": "T1 chain with S48L", "test": "phage ELISA on FZD8-Fc"}},
  "note": "Changes are numbered by the printed parent chain.",
  "data": [
    {"binder": "B1", "values": [
      {"measurement": "binding result", "setting": "[1]", "value": "no binding"}
    ]},
    {"binder": "B2", "values": [
      {"measurement": "EC50", "setting": "[2]", "value": 0.41, "unit": "nM"},
      {"measurement": "EC50", "setting": "[3]", "value": 0.62, "unit": "nM"},
      {"measurement": "EC50", "setting": "[4]", "value": 1.1, "unit": "nM"},
      {"measurement": "EC50", "setting": "[5]", "value": 0.58, "unit": "nM"},
      {"measurement": "Kd", "setting": "[6]", "value": 4.6, "unit": "nM"},
      {"measurement": "Kd", "setting": "[7]", "value": 3.3, "unit": "nM"},
      {"measurement": "Kd", "setting": "FZD5-Fc", "value": 1.9, "unit": "nM"},
      {"measurement": "Kd", "setting": "[8]", "value": 1.8, "unit": "nM"},
      {"measurement": "EC50 (read off the curve)", "setting": "[9]", "value": "~0.2", "unit": "µg/mL"},
      {"measurement": "EC50 (read off the curve)", "setting": "[10]", "value": "~0.2", "unit": "µg/mL"}
    ]},
    {"binder": "B3", "values": [
      {"measurement": "binding result", "setting": "[11]", "value": "binds"},
      {"measurement": "binding result", "setting": "[1]", "value": "no binding"}
    ]},
    {"binder": "B4", "values": [
      {"measurement": "EC50", "setting": "[4]", "value": 1.89, "unit": "nM"}
    ]}
  ]
}
